Experimental data: patent US9732101B2, “Bioreversible boronates for delivery of molecules into cells” (WISCONSIN ALUMNI RESEARCH FOUNDATION, priority 2012, dated 2017)
Where two headings read alike, the source gives them in different places.

Tests used:
[1] = Fluorescence polarization assay of binding to GD3 ganglioside-labeled liposomes; parameters: species or system bovine; conditions: for affinity for GD3 ganglioside relative to binding of a single benzoboroxole to Neu5Ac: compared with Ka of Table 1
Description: Liposomes were formed by transferring DOPC (dissolved in chloroform solution) and GD3 gangliosides (dissolved in 63:35:5 chloroform/methanol/water) to glass tubes and drying them under Ar (g) and then under vacuum. Lipids were re-suspended in 25 mM HEPES buffer, pH 7.0, containing NaCl (75 mM). The solution of lipids was mixed by vortexing for 2 min, and incubated at 37° C. for 1 h. For DOPC liposomes, DOPC was resuspended at a concentration of 5 mM. For GD3 ganglioside-labeled liposomes, DOPC and GD3 gangliosides were mixed at 3 mM and 2 mM concentrations, respectively. Large unilammelar vesicles were formed by extrusion through a 0.1-μm polycarbonate filter from Whatman (GE Healthcare, Piscataway, N.J.). This process produces a population of vesicles of near uniform size (˜100-150 nm diameter as measured by dynamic light scattering). A portion of the DOPC lipids before extrusion were aliquoted as a control.
Fluorescence polarization assays were performed using 50 nM BODIPY FL-labeled unmodified and benzoboroxole-boronated RNase A in black NBS 96-well plates (Corning Costar, Lowell, Mass.). These ribonucleases were incubated with DOPC liposomes (625 μM total lipid) or GD3 ganglioside-labeled liposomes (375 μM DOPC, 250 μM GD3 ganglioside=625 μM total lipid) in 25 mM HEPES buffer, pH 7.0, containing NaCl (75 mM) in the absence or presence of fructose (10 mM). In control wells, ribonucleases were incubated with non-extruded DOPC lipids. Fluorescence polarization at 470/535 nm with a G-factor of 1.257 was recorded after shaking the plate briefly and incubating at ambient temperature for 1 h. Control well polarization was subtracted from experimental well polarization for each ribonuclease. The assay was performed in triplicate.
The affinity of benzoboroxole-boronated RNase A for GD3 ganglioside-labeled liposomes was assessed by using serially diluted liposomes. GD3 ganglioside-labeled liposomes were serially diluted in 25 mM HEPES, pH 7.0, containing 75 mM with dilutions of 62.5 nM-1250 μM total lipid. […] Control DOPC liposomes (with no GD3 ganglioside) were likewise diluted in the same buffer, producing solutions of 62.5 nM-1250 μM total lipid. Liposomes were then incubated with 50 nM BODIPY FL-labeled benzoboroxole-boronated RNase A in the same buffer in a black NBS 96-well plate. Fluorescence polarization was recorded after shaking the plate briefly and incubating at ambient temperature for 35 min. Fluorescence polarization from GD3 ganglioside-labeled liposomes was subtracted from that from DOPC-only liposomes, thereby correcting for binding to DOPC and for changes in solution viscosity. The assay was performed in duplicate. The fraction of labeled ribonuclease bound for each sample well was calculated by dividing its polarization from the polarization of ribonucleases incubated with the highest concentration of GD3 ganglioside (set at 100% bound). The value of Kd was calculated by plotting the fraction bound against the concentration of GD3 ganglioside (see FIG. 21) and fitting the data to a binding isotherm as described in ref. [46] to give Kd=(54±11) μM.

[2] = test system: Pro-5 cells; assay: Confocal microscopy of live cells; format: cell-based, Chinese hamster; conditions: 5 μM, 4 h
Description: Cell lines were obtained from American Type Culture Collection (Manassas, Va.) and were maintained according to the recommended procedures. Cells were grown in a cell culture incubator at 37° C. under CO2 (5% v/v) in flat-bottomed culture flasks. Cell medium was supplemented with GIBCO fetal bovine serum (FBS) (10% v/v), penicillin (100 units/mL), and streptomycin (100 μg/mL) in the appropriate cellular medium as follows: Pro-5, MEM α+ribonucleosides+deoxyribonucleosides; Lec-2, MEM α-ribonucleosides-deoxyribonucleosides; and K562, RPMI 1640. Cells were counted by hemocytometry for dispensing into 12-well plates (Corning Costar, Lowell, Mass.) or 8-well chambered coverglass slides (Nuc Lab-Tek II, Thermo Scientific).
Pro-5 cells were plated on Nunc Lab-tek II 8-well chambered coverglass 24 h before use and grown to 80% confluency. Cells were incubated with 5 μM BODIPY FL-labeled ribonucleases for 4 h. Cell nuclei were stained with Hoechst 33342 (Invitrogen, 2 μg/mL) for the final 15 min of incubation. Cells were then washed twice with PBS, suspended in PBS, and examined using a Nikon Eclipse C1 laser scanning confocal microscope. Results are illustrated in FIG. 4B.

[3] = test system: 6-FAM-dArUdAdA-6-TAMRA; assay: Ribonucleolytic activity assay; format: biochemical; conditions: relative to unmodified RNase A; 0.10 M MES-NaOH buffer, pH 6.0, NaCl 0.10 M
Description: Assays were carried out at ambient temperature in 2 mL of 0.10 M MES-NaOH buffer, pH 6.0, containing NaCl (0.10 M). Fluorescence data were fitted to the equation: kcat/KM=(ΔI/Δt)/(If−I0)[E], in which ΔI/Δt is the initial reaction velocity, I0 is the fluorescence intensity before addition of ribonuclease, If is the fluorescence intensity after complete substrate hydrolysis, and [E] is the total ribonuclease concentration. The assay was performed in triplicate.

[4] = test system: K-562 cells; assay: Cell-proliferation assay, [methyl-3H]thymidine incorporation; format: cell-based, human
Description: The effect of unmodified and boronated RNase A on the proliferation of K-562 cells was assayed as described in For assays, 5 μL of a solution of the ribonuclease or PBS (control) was added to 95 μL of cells (5.0×10^4 cells/mL). For co-treatment assays with fructose, ribonucleases were first serially diluted at 2× concentration, followed by addition of an equal volume of 2 M fructose in PBS to each ribonuclease dilution, resulting in a 1× ribonuclease dilution as before but now containing 1 M fructose. Then, 5 μL of each dilution was added to cells as above, including a control of PBS containing 1 M fructose. Because 5 μL of samples were added to 95 μL of cells, the final concentration of fructose in each well was 50 mM.
After a 44-h incubation, K-562 cells were treated with [methyl-^3H]thymidine for 4 h, and the incorporation of radioactive thymidine into cellular DNA was quantitated by liquid scintillation counting. The results are shown as the percentage of [methyl-^3H]thymidine incorporated relative to control cells treated with PBS in FIG. 5. […] Values for IC50 were calculated by fitting the curves by nonlinear regression to the equation: y=100%/(1+10^(log(IC^50^)-log [ribonuclease])h), in which y is the total DNA synthesis following the [methyl-^3H]thymidine pulse and h is the slope of the curve.

Kd ([1]; BODIPY FL-labeled protein 50 nM, 25 mM HEPES buffer, pH 7.0, NaCl 75 mM): 54 ± 11 µM
affinity for GD3 ganglioside relative to binding of a single benzoboroxole to Neu5Ac ([1]; listed as benzoboroxole-boronated protein): ~430 fold
affinity for GD3 ganglioside relative to binding of a single benzoboroxole to Neu5Ac ([1]; listed as boronated protein): ~440 fold
effect of boronation on affinity for the ganglioside ([1]; fluorescence polarization, absence of fructose, versus unmodified RNase A): increased the affinity
effect of fructose on the increased affinity for the ganglioside ([1]; fluorescence polarization, fructose 10 mM): abrogated
IC50 ([4]; [methyl-3H]thymidine incorporation, 44-h incubation, read-out: IC50, inhibition of K-562 cell proliferation): 4 ± 0.3 µM
IC50 ([4]; fructose 50 mM, read-out: IC50, inhibition of K-562 cell proliferation in the presence of fructose): 9 ± 1 µM
B1: benzoboroxole-boronated RNase A: RNase A with 5-amino-2-hydroxymethylphenylboronic acid conjugated to protein carboxyl groups by carbodiimide condensation (conjugate, UniProt P61823 27-150, looked up)
Ribonuclease pancreatic: KETAAAKFERQHMDSSTSAASSSNYCNQMMKSRNLTKDRCKPVNTFVHESLADVQAVCSQKNVACKNGQTNCYQSYSTMSITDCRETGSSKYPNCAYKTTQANKHIIVACEGNPYVPVHFDASV
modifications: benzoboroxole conjugated to carboxyl groups
notes: RNase A with 5-amino-2-hydroxymethylphenylboronic acid conjugated to protein carboxyl groups by carbodiimide condensation
intracellular staining pattern [2]: punctate staining
ribonucleolytic activity retained [3]: 17±2%
